According to US20120128704A1 (published 2012):

T1: survivin peptide on HLA-A*02:01 (human)
T1 peptide: LMLGEFLKL


Target: T1, survivin peptide on HLA-A*02:01
Assay: multimer staining
Method: Up to 1×10⁶ of cells were incubated in 50 μl volume for 25 min with 4 μg PE-labeled multimer on ice in the dark. For sorting, up to 5×10⁶ cells were incubated with 12 μg multimer in 100 μl PBS+0.5% human serum. CD8-APC antibody was then added at 1/50 for an additional 25 min. After staining cells were washed twice and either fixed in FACS buffer with 1% paraformaldehyde and analysed by flow cytometry using a FACSCalibur (BD Biosciences) or diluted in PBS+0.5% human serum with PI for sorting. 20-50×10⁶ total cells per priming culture were stained for sorting. PI-negative cells were gated and CD8⁺multimer⁺ T cells were sorted on a FACSAria cell sorter (BD Biosciences) with a 70 μm nozzle, at a rate of 15,000 events/s. […] Pentamer staining was performed according to the manufacturer's instructions.

| Binder | binding result |
| --- | --- |
| SW-Surv-22 (TCR, V domains shown) Valpha: EDQVTQSPEALRLQEGESSSLNCSYTVSGLRGLFWYRQDPGKGPEFLFTLYSAGEEKEKERLKATLTKKESFLHITAPKPEDSATYLCAVQAYSNSGYALNFGKGTSLLVTP Vbeta: SAVISQKPSRDICQRGTSLTIQCQVDSQVTMMFWYRQQPGQSLTLIATANQGSEATYESGFVIDKFPISRPNLTFSTLTVSNMSPEDSSIYLCSVEDSYGYTFGSGTRLTVV | recognises |
| SW-Surv-66 (TCR, V domains shown) Valpha: GENVEQHPSTLSVQEGDSAVIKCTYSDSASNYFPWYKQELGKRPQLIIDIRSNVGEKKDQRIAVTLNKTAKHFSLHITETQPEDSAVYFCAARAGNMLTFGGGTRLMVKP Vbeta: SQTIHQWPATLVQPVGSPLSLECTVEGTSNPNLYWYRQAAGRGLQLLFYSVGIGQISSEVPQNLSASRPQDRQFILSSKKLLLSDSGFYLCAWGTGLALYEQYFGPGTRLTVT | recognises |
| SW-Surv-72 (TCR, V domains shown) Valpha: AQKITQTQPGMFVQEKEAVTLDCTYDTSDQSYGLFWYKQPSSGEMIFLIYQGSYDEQNATEGRYSLNFQKARKSANLVISASQLGDSAMYFCAMREGGGYNKLIFGAGTRLAVHP Vbeta: SQTIHQWPATLVQPVGSPLSLECTVEGTSNPNLYWYRQAAGRGLQLLFYSVGIGQISSEVPQNLSASRPQDRQFILSSKKLLLSDSGFYLCAGQDLNTEAFFGQGTRLTVV | recognises |
